Results published in US20180355043A1 (Janssen / Centocor, published 2018).
Residue numbers refer to the chain shown, from its start. Like-named read-outs stand apart in the source and are kept apart here.

Tests used:
[1] = target: T1, DR4G103: Human HLA-DRA1*01:02/DRB1*15:01 ECD with hemagglutinin peptide HA_304-318 (human); assay: MSD ECL; antigen coated; protocol of Example 3;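 on ECL signal: antibodies tested at 0.04–5 µg/ml on plate-coated soluble HLA-DR carrying peptide on the beta chain N-terminus, bound antibody detected by SulfoTag anti-human kappa secondary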
T1 construct: also called DRB1*15:01 HA

[2] = target: T2, DR4G104: Human HLA-DRA1*01:02/DRB1*04:02 ECD with hemagglutinin peptide HA_304-318 (human); assay: MSD ECL; antigen coated
T2 construct: also called DRB1*04:02 HA

[3] = target: T1, DR4G103: Human …; assay: MSD ECL; antigen coated
[4] = target: T3, DR4G89: Human HLA-DRA1*01:02/DRB1*04:01 ECD with hemagglutinin peptide HA_304-318 (human); assay: MSD ECL; antigen coated; mAb 0.2 µg/ml
T3 construct: also called DRG89; HLA-DR4 with HA_304-318

[5] = target: T4, DR4G93: Human HLA-DRA1*01:02/DRB1*01:01 ECD with hemagglutinin peptide HA_304-318 (human); assay: MSD ECL; antigen coated; mAb 0.2 µg/ml
T4 construct: also called HLA-DR1 with HA_304-318

[6] = target: T5, DR4G119: Human HLA-DRA1*01:02/DRB1*10:01 ECD with hemagglutinin peptide HA_304-318 (human); assay: MSD ECL; antigen coated; protocol of Example 3
T5 construct: also called DRB1*10:01 HA
Experimental: (§1) The soluble antigens of DR, DP and DQ were coated on MSD standard plates (Meso Scale Discovery, Cat. No. L15XA-3) at 5 μg/ml at 4° C. overnight. […] Binding to DR antigens was tested with four antibody concentrations ranging from 0.04-5 μg/ml. Binding to DP and DQ antigens was tested with one concentration at 5 μg/ml. After three washes, SulfoTag anti-human/NHP Kappa secondary antibody (Meso Scale Discovery, Cat. No. D20TF-6) was added and incubated for 1 hour. After another three washes, the plates were read under MSD reader (Meso Scale Discovery), and electrochemiluminescence (ECL) was measured.
(§2) Select antibodies were further characterized for their binding to soluble HLA-DR, HLA-DQ and HLA-DP antigens in complex with various peptides which were covalently attached to the N-terminus of the beta chains.

[7] = target: T2, DR4G104: Human …; assay: MSD ECL; antigen coated; protocol of Example 3
Experimental: as §1, §2

[8] = target: T3, DR4G89: Human HLA-DRA1*01:02/DRB1*04:01 …; assay: MSD ECL; antigen coated
[9] = target: T4, DR4G93: Human HLA-DRA1*01:02/DRB1*01:01 …; assay: MSD ECL; antigen coated
[10] = target: T3, DR4G89: Human HLA-DRA1*01:02/DRB1*04:01 …; assay: MSD ECL; antigen coated; mAb 0.2 µg/ml; remark: listed apart in the source
[11] = target: T4, DR4G93: Human HLA-DRA1*01:02/DRB1*01:01 …; assay: MSD ECL; antigen coated; mAb 0.2 µg/ml; remark: listed apart in the source
[12] = target: T4, DR4G93: Human HLA-DRA1*01:02/DRB1*01:01 …; assay: SPR ProteOn XPR36; mAb amine-coupled, antigen as analyte; 25 °C
[13] = target: T3, DR4G89: Human HLA-DRA1*01:02/DRB1*04:01 …; assay: as above

B1: DR4B5 (antibody, V domains shown)
VH: QVQLQESGPGLVKPSETLSLTCTVSGFSLTNYGVHWVRQSPGKGLEWIGVKWSGGSTEYNAAFISRLTISKDTSKNQVSLKLNSLTAADTAVYYCARNDRYAMDYWGQGTLVTVSS
VL: DIQMTQSPSSLSASVGDRVTITCRASENIYSYLAWYQQKPGKAPKLLVSNAKTLAEGVPSRFSGSGSGKQFTLTISSLQPEDFATYYCQHHYGNSYPFGQGTKLEIK
notes: also called apolizumab (1D10) re-engineered as IgG2sigma
In the case of B1, the ECL signal [1] is reported as 329 ECL, the binding result [2] is reported as “no binding” and the binding result [3] is reported as “no binding”. The ECL signal [4] was 1.26e+06 ECL, the ECL signal [5] was 1.3e+06 ECL and the ECL signal [6] was 132000 ECL. For the same binder, the ECL signal [7] was 825 ECL.

B2: DR4B33 (antibody, human IgG2, kappa, V domains shown)
VH: EVQLVQSGAEVKKPGESLKISCKGSGYSFDSAYINWVRQMPGKGLEWMGIIRPGDSRTRYSPSFQGQVTISADKSISTAYLQWSSLKASDTAVYYCARDGYYFVGSIIYYGMDVWGQGTLVTVSS
VL: not shown
notes: also called VH DR4H58 / VL PH9L4
B2: binds [8]; binds [9].

B3: DR4B4 (antibody, V domains shown)
VH: QVQLKESGPGLVAPSQSLSITCTISGFSLTSYGVHWVRQPPGKGLEWLVVIWSDGSTTYNSALKSRLSISKDNSKSQVFLKMNSLQTDDTAIYYCASHYGSTLAFASWGHGTLVTVSA
VL: DIQMTQSPASLSASVGETVTIICRASVNIYSYLAWYQQKQGKSPQLLVYNAKILAEGVPSRFSGSGSGTQFSLKINSLQPEDFGSYYCQHHYGPFTFGSGTKLEIK
notes: also called Lym-1 re-engineered as IgG2sigma
With B3 the ECL signal [1] was 287 ECL, the binding result [2] was “no binding” and the binding result [3] was “no binding”. It also gave an ECL signal [4] of 1.28e+06 ECL, an ECL signal [5] of 888000 ECL and an ECL signal [6] of 572000 ECL. For the same binder, the ECL signal [7] was 451 ECL.

B4: DR4B6 (antibody, V domains shown)
VH: QIQLVQSGPELKKPGETVKISCKASGFTFTNYGMNWVKQAPGKGLKWMGWINTYTREPTYADDFKGRFAFSLETSASTAYLQINNLKNEDTAKYFCARDITAVVPTGFDYWGQGTTLTVSS
VL: DIQMTQSPASLSVSVGETVTITCRASENIYSNLAWYRQKQGKSPQLLVFAASNLADGVPSRFSGSGSGTQYSLKINSLQSEDFGDYYCQHFWTTPWAFGGGTNLEIK
notes: also called L243 re-engineered as IgG2sigma
B4 gave an ECL signal [1] of 142000 ECL, an ECL signal [4] of 1.34e+06 ECL and an ECL signal [5] of 1.32e+06 ECL. It also gave an ECL signal [6] of 580000 ECL and an ECL signal [7] of 415000 ECL.

B5: DR4B98 (antibody, human IgG2, kappa, V domains shown)
VH: QVQLVQSGAEVKKPGSSVKVSCKASGGTFKSYYIHWVRQAPGQGLEWMGGIAPIYGTAYYAQKFQGRVTITADESTSTAYMELSSLRSEDTAVYYCARDASWARAYGFDYWGQGTLVTVSS
VL: EIVLTQSPATLSLSPGERATLSCRASQSVSSYLAWYQQKPGQAPRLLIYDASNRATGIPARFSGSGSGTDFTLTISSLEPEDFAVYYCQQRSNWPLTFGQGTKVEIKR
notes: also called VH DR4H50 / VL PH9L3
B5 was tested, and the ECL signal [1] was 34700 ECL, the ECL signal [4] was 775000 ECL and the ECL signal [5] was 140000 ECL. It also gave an ECL signal [6] of 94700 ECL and an ECL signal [7] of 421000 ECL.

B6: DR4B30 (antibody, human IgG2, kappa, V domains shown)
VH: EVQLVQSGAEVKKPGESLKISCKGSGYSFTSDWIGWVRQMPGKGLEWMGIIRPGDSDTYYSPSFQGQVTISADKSISTAYLQWSSLKASDTAVYYCARESYYYVGVRYRPSYYFDYWGQGTLVTVSS
VL: B5 VL
notes: also called VH DR4H39 / VL PH9L3
In the case of B6, the ECL signal [10] is reported as 1.13e+06 ECL, the ECL signal [11] is reported as 1.07e+06 ECL and the ECL signal [4] is reported as 1.13e+06 ECL. For the same binder, the ECL signal [5] was 1.07e+06 ECL.

B7: DR4B78 (antibody, human IgG2, kappa, V domains shown)
VH: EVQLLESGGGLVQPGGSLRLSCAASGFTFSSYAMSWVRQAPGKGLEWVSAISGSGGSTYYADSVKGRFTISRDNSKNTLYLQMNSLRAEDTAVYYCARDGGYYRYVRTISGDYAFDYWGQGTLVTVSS
VL: B5 VL
notes: also called VH DR4H62 / VL PH9L3
Work on B7 yielded an ECL signal [10] of 979000 ECL and an ECL signal [11] of 1.06e+06 ECL.

B8: DR4B127 (antibody, human IgG2, kappa, V domains shown)
VH: B5 VH with A52R, Y55S, T57N, Y59E, W102Y, A103Y, A105N
VL: B5 VL
notes: also called VH DR4H7 / VL PH9L3
With B8 the ECL signal [1] was 334000 ECL, the Kd [12] was 47.7 nM and the koff [12] was 0.00092 s⁻¹. It also gave a kon [12] of 19300 M⁻¹ s⁻¹, a Kd [13] of 9.19 nM and a koff [13] of 0.000155 s⁻¹. It also gave a kon [13] of 16800 M⁻¹ s⁻¹, an ECL signal [4] of 1.03e+06 ECL and an ECL signal [5] of 918000 ECL. The ECL signal [6] was 1.24e+06 ECL and the ECL signal [7] was 1.27e+06 ECL.

B9: DR4B70 (antibody, human IgG2, kappa, V domains shown)
VH: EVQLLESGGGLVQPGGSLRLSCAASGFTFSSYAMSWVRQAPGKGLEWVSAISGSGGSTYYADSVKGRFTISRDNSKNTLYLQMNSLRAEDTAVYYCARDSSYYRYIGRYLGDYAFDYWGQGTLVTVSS
VL: B5 VL
notes: also called VH DR4H29 / VL PH9L3
In the case of B9, the ECL signal [10] is reported as 888000 ECL and the ECL signal [11] is reported as 972000 ECL.

B10: DR4B22 (antibody, human IgG2, kappa, V domains shown)
VH: EVQLLESGGGLVQPGGSLRLSCAASGFTFSSYAMNWVRQAPGKGLEWVSAISGSGGYTNYADSVKGRFTISRDNSKNTLYLQMNSLRAEDTAVYYCARDGGYYRYVYRYPGDYAFGYWGQGTLVTVSS
VL: B5 VL
notes: also called VH DR4H16 / VL PH9L3
With B10 the ECL signal [10] was 1.01e+06 ECL and the ECL signal [11] was 896000 ECL.

B11: DR4B38 (antibody, human IgG2, kappa, V domains shown)
VH: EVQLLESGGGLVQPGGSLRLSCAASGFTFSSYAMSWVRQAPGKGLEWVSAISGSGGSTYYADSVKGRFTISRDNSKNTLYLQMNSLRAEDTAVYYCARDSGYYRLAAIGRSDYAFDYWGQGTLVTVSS
VL: B5 VL
notes: also called VH DR4H56 / VL PH9L3
Work on B11 yielded an ECL signal [10] of 1.22e+06 ECL and an ECL signal [11] of 1.12e+06 ECL.
